Measured values published in the supplement of paper PMC12042874.
± gives the uncertainty stated by the source.

test: amyloid nucleation score (Sup35N fusion, yeast selection) (log enrichment); library NNK1; higher = more nucleation; inactive = no reads after selection
Outline: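 Peptides of 20 random codons fused to Sup35N were expressed in psi-negative yeast, induced 24 hours with 100 μM copper sulfate, then grown 7 days at 30°C on medium lacking adenine and uracil. Input and output plasmid inserts were Illumina-sequenced. Nucleation score is the DiMSum log enrichment of output over input reads, centred on the mode score of non-aggregating sequences, excluding sequences with under 100 input reads. Random libraries had three technical output replicates.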

Substance	amyloid nucleation score
YNMNFVSLVLGARRVYALSM	3.62 ± 0.12
YNRIIYYCGVM	0.782 ± 0.97
YNSRRAWDACCFGLVPLWEC	2.08 ± 0.3
YPLFCNDHVGSSTLRRR	-0.065 ± 0.35
YPRPLWANRRPC	-0.151 ± 0.66
YPSIGLRVLLNYCDPTDTGA	0.255 ± 1.2
YPVVHDM	-0.426 ± 0.56
YQKTNPMELWLPSL	inactive
YQQSCWVLYGTNLRYSNQSW	1.74 ± 0.14
YQTGYGGCGYCRLVRGCVKV	-0.442 ± 0.33
YQVPKKVAATIGTAWARKRA	0.279 ± 0.29
YRCNT	-0.244 ± 0.32
YRDFGGN	0.076 ± 0.24
YRDTVGVYYRFIRGYWMCTW	-0.396 ± 0.42
YREEEILRVVNLTIFAGPGM	-0.55 ± 0.39
YRFQTSISNCYSAERDWGT	1.37 ± 0.42
YRLDFGWTMH	0.3 ± 0.31
YRSFAYEGSSRIGG	-0.022 ± 0.38
YRSSGWRNTSSRAVLCCLDE	-0.356 ± 0.38
YRVYRRLSV	0.526 ± 0.45
YSARLLSERIKWHFTLMMND	0.41 ± 0.36
YSESVCSLLPQYSPVHPLFT	0.891 ± 0.97
YSGHWLVHLPCHHQVR	-0.028 ± 0.46
YSKIRNKSRFRNLSASFQRC	inactive

Substance	amyloid nucleation score
YSLSNVEGYYTYYYRT	-0.071 ± 0.28
YSLYTNSHVPAWHSPSISHG	-0.38 ± 0.82
YSMSRMIIKVKLQRHVMNYS	-0.88 ± 0.73
YSRISKRVSRKGQSRNCHSG	-0.413 ± 0.52
YSRYYVNVVWFLGKLRS	0.012 ± 0.37
YSSGYLWFFIGTS	-1.38 ± 1.7
YSSICGSKLLRSGGCRGVGH	-0.083 ± 0.49
YSTSSEVEVDWLSVSKFVSI	0.146 ± 0.27
YSVQIMSKNITWVKVCPASK	5.19 ± 0.071
YSVSCSVF	-0.341 ± 0.31
YTAACTRSNCYMCPVSAVGW	0.214 ± 0.86
YTFGWLLIKPHLRPAFKPHR	-1.75 ± 2.7
YTIGTRPTMLRLFGVLRWAG	1.19 ± 0.43
YTMRGASRSTTDLLKIMIYM	-2.83 ± 2.4
YTPGSGVLRAGTADQLMRNF	0.522 ± 0.63
YTRMICGSMMGGVMREMRIM	0.739 ± 0.36
YTTVVQF	0.064 ± 0.23
YVCDKFYGNAQCF	0.644 ± 0.4
YVCGGWCVRVVRQVGYVNL	0.421 ± 0.55
YVDDGMCSAICYSTVNNMSN	8.666 ± 0.047
YVEFVFNIYSARFEWLLI	-0.463 ± 0.75
YVGIPQCGDLKRRPLA	0.116 ± 1.1
YVGQGPGSLLTTGWVRYSL	-0.137 ± 0.6
YVHQRGNNTSAMLAWVLPRH	-0.766 ± 0.5

Substance	amyloid nucleation score
YVSAVGLWVVLYYMMRMCAS	inactive
YVSIYGQWVSSSCWTRRAYN	0.415 ± 0.32
YVSTIN	0.629 ± 0.42
YVSYVCLDWM	6.7 ± 0.068
YVTDVDF	inactive
YVVIAEPGYSRDMISLMERC	-1.16 ± 1.3
YVVWDICKRVLLQWRYPPFS	-0.077 ± 1.7
YVWDFRKLLYPAGWMSESVR	-0.346 ± 1
YWDEIRCNSKNFDPCPFKAS	0.54 ± 0.19
YWGFGYPMFLNINMCLTSPE	6.21 ± 0.091
YWICRDTGSYDFCMMGMGKA	0.335 ± 0.34
YWKMRCM	3.47 ± 0.19
YWLSSVHSQSRVAK	-0.298 ± 1.7
YWNDVAS	-0.931 ± 0.75
YWNRRYIGTPLNM	-1.73 ± 2.7
YWRNKGVVCGLCYDIVR	-0.019 ± 0.97
YWRVVGITIWVVQDLIFGEG	-0.783 ± 1
YYGYVLFQGFSM	1.82 ± 0.19
YYLIMP	0.322 ± 0.41
YYMLGYLDSYLWSENDLWMC	0.642 ± 0.36
YYNFLLIIFNCCKVMS	3.5 ± 0.11
YYNLTSGPFKGGCWQRYF	-0.205 ± 0.32
